The record followed here is patent US20190022245A1.

In the experiment the target is epidermal growth factor receptor (EGFR) on cells (human (on human cell lines)) (UniProt P00533). Description: cell-based or functional assay.

B1: h15-2b Fab × EGFR scFv (monovalent anti-mPEG (h15-2b) anti-EGFR BsAb, example 2.3) (bispecific antibody, part only; not given: nothing essential named, not shown: another chain or arm of the molecule; ; small tags and cut ends)
light: DIQMTQSPSSLSASVGDRVTITCKASQDVNTSVAWYQQKPGKAPKLLIYWASTRHTGVPSRFSGSGSGTDFTFTISSLQPEDIATYYCLQYINYPYTFGQGTKLEIKRTVAAPSVFIFPPSDEQLKSGTASVVCLLNNFYPREAKVQWKVDNALQSGNSQESVTEQDSKDSTYSLSSTLTLSKADYEKHKLYACEVTHQGLSSPVTKSFNRGEC
heavy: EVQLVESGGGLVQPGGSLKLSCAASGFTFSNYWMNWVRQASGKGLEWVGEIRSKSNNYATHYAESVKGRFTISRDDSKNTAYLQMNSLKTEDTAVYYCSNRYYWGQGTLVTVSSASTKGPSVFPLAPCSRSTSESTAALGCLVKDYFPEPVTVSWNSGALTSGVHTFPAVLQSSGLYSLSSVVTVPSSNFGTQTYTCNVDHKPSNTKVDKTVERKGEQKLISEEDLGGGGSGGGGSGGGGSQLDIVMTQSPLSLPVTPGEPASISCRSSQNIVHNNGITYLEWYLQKPGQSPQLLIYKVSDRFSGVPDRFSGSGSGTDFTLKISRVEAEDVGVYYCFQGSHIPPTFGQGTKVEIKRAGGGGSGGGGSGGGGSQVQLVQSGAEVKKPGASVKVSCKASGYTFTSYWMHWVRQAPGQGLEWMGNIYPGSGGTNYAEKFKNRVTMTRDTSISTAYMELSRLRSDDTAVYYCARSGGPYFFDYWGQGTLVTVSS
For B1, the region of interest (ROI) ratio of SW480 (EGFR+) to SW620 (EGFR-) tumors, 24 h is 2.04; the region of interest (ROI) ratio of SW480 (EGFR+) to SW620 (EGFR-) tumors, 48 h was 2.32; the region of interest (ROI) ratio of SW480 (EGFR+) to SW620 (EGFR-) tumors, 72 h was determined as 2.33.
